± gives the uncertainty stated by the source.
B1: MEF2-activating motif and SAP domain-containing transcriptional regulator, residues 170 to 204; numbered along this chain, Q6ZN01 (parent)
chain: LKLEELTVSELRQQLRLRGLPVSGTKSMLLERMRG

Variants of: B1
Assay: abundance fitness (aPCA) (normalised: wild type 0, dead -1); higher = more abundant; growth selection in yeast, the domain comes from the species named
Settings: Homo sapiens
With R32V the abundance fitness was -0.368 ± 0.12. Variant R32T has an abundance fitness of 0 ± 0.1. R32W gave an abundance fitness of -0.554 ± 0.074. In the case of M33T, the abundance fitness is reported as -0.525 ± 0.099. Work on M33C yielded an abundance fitness of -0.235 ± 0.077. M33W gave an abundance fitness of -0.538 ± 0.11. M33E showed an abundance fitness of -0.146 ± 0.091. M33G gave an abundance fitness of -0.343 ± 0.078. Variant M33Q has an abundance fitness of 0.04 ± 0.25. With M33S the abundance fitness was -0.34 ± 0.065. Variant M33N has an abundance fitness of -0.613 ± 0.34. M33R gave an abundance fitness of -0.66 ± 0.084. For M33F, the abundance fitness was -0.516 ± 0.091. For M33L, the abundance fitness was 0.206 ± 0.1. M33A gave an abundance fitness of -0.161 ± 0.08. Variant G35A has an abundance fitness of -0.117 ± 0.13. G35S showed an abundance fitness of -0.262 ± 0.36. G35R gave an abundance fitness of -0.436 ± 0.11. Work on G35N yielded an abundance fitness of -0.161 ± 0.28. Work on G35F yielded an abundance fitness of -0.295 ± 0.11. Variant G35L has an abundance fitness of -0.074 ± 0.081. G35W showed an abundance fitness of -0.416 ± 0.13. With R34S the abundance fitness was -0.064 ± 0.089. For R34T, the abundance fitness was -0.045 ± 0.079. For R34N, the abundance fitness was 0.21 ± 0.12. R34C gave an abundance fitness of -0.021 ± 0.21. Variant R34A has an abundance fitness of -0.118 ± 0.068. Work on R34I yielded an abundance fitness of -0.323 ± 0.29. With R34E the abundance fitness was -0.089 ± 0.093. For R34W, the abundance fitness was -0.556 ± 0.071. Work on R34V yielded an abundance fitness of -0.244 ± 0.1. Work on R34M yielded an abundance fitness of -0.416 ± 0.49. R34L showed an abundance fitness of -0.068 ± 0.15. With R34F the abundance fitness was -0.516 ± 0.099. With R34D the abundance fitness was -0.396 ± 0.2. For R34Y, the abundance fitness was -0.316 ± 0.08. In the case of R34Q, the abundance fitness is reported as 0.156 ± 0.068.

Reference: the Human Domainome abundance scans (Beltran et al. 2025)
